Our source for the Kd and koff values is paper PMC9802395 (2022).

Read-outs that look alike come from different tables or passages of the source.

As usually defined, the Kd is the constant that tells how readily two partners part at equilibrium. The term koff denotes the first-order rate constant of dissociation.

B1: biotinylated EIIIB (protein fragment of fibronectin splice variant EIIIB) (domain or fragment)
chain: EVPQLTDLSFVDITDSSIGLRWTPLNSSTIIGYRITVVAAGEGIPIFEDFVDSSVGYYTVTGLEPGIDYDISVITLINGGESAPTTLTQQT
modifications: biotin (ChromaLink NHS-biotin reagent)

Among the targets are LMJ1.3J; LMJ2.5C; LMJ2.4C; LMJ1.2G; LMJ2.6A; LMJ2.5G; LMJ2.5J; LMJ2.5H; NJB2.
Assay in all cases: BLI
(In BLI a coated tip is dipped into the sample, and binding shifts an interference pattern.)

The target in assay [1] is B1.
Assay [2] has as its target B1. This is another data set of the same source.
The target of assay [3] is B1. The source holds these as a separate data set.
Assay [4] deals with B1. This is another data set of the same source.

Sequence of LMJ1.3J (P02751 1266-1356): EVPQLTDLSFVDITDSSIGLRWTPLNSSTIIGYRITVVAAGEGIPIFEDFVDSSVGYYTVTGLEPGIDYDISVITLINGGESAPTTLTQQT
Sequence of LMJ1.2G (P02751 1266-1356): as above
Sequence of LMJ2.5G (P02751 1266-1356): as above
Sequence of LMJ2.6A (P02751 1266-1356): as above
Sequence of LMJ2.5J (P02751 1266-1356): as above
Sequence of LMJ2.4C (P02751 1266-1356): as above
Sequence of LMJ2.5C (P02751 1266-1356): as above
Sequence of LMJ2.5H (P02751 1266-1356): as above
Sequence of NJB2 (P02751 1266-1356): as above

On to B1, for which the Kd was 0.402 nM with LMJ1.3J; 0.0785 nM with LMJ2.5C; 0.0626 nM with LMJ2.4C; 0.973 nM in the assay with LMJ1.2G; 0.344 nM with LMJ2.6A; 0.166 nM in the assay with LMJ2.5G. Moreover, the values for the Kd with LMJ2.5J, with LMJ2.5H and with NJB2 were 0.0622 nM, 0.227 nM and 1.82 nM, respectively. Besides, the koff with LMJ1.3J amounted to 0.000305 s⁻¹; in the assay with LMJ2.5C, 3.52e-05 s⁻¹; with LMJ2.4C, 4.8e-05 s⁻¹; with LMJ1.2G it was 0.000475 s⁻¹; with LMJ2.6A it was 7.47e-05 s⁻¹; with LMJ2.5G it was 9.13e-05 s⁻¹. For the same molecule, the results for the koff with LMJ2.5J, with LMJ2.5H and in the assay with NJB2 were 4.45e-05 s⁻¹, 0.000136 s⁻¹ and 0.00104 s⁻¹, respectively.

B2: NJB2-IL2 (NJB2 nanobody fused to murine IL-2) (VHH)
VHH: QVQLVETGGGLVQAGGSLRLSCAASGSTFSHNAGGWYRQAPEKQRELVAGISSDGNINYADSVKDRFTISRDNASNTMYLQMNNLKPEDTAVYVCNIRGSYGNTYYSRWGQGTQVTVSS
B2: the koff in [1] turned out to be 0.000289 s⁻¹. Moreover, the Kd stood at 0.996 nM in assay [2] and 1.1 nM in assay [3].

B3: NJB2-IL2-mt (NJB2 fused to murine IL-2 bearing point mutations that abrogate cytokine activity) (VHH)
VHH: QVQLVETGGGLVQAGGSLRLSCAASGSTFSHNAGGWYRQAPEKQRELVAGISSDGNINYADSVKDRFTISRDNASNTMYLQMNNLKPEDTAVYVCNIRGSYGNTYYSRWGQGTQVTVSS
B3 yielded a Kd in assay [3] of 1.6 nM.

B4: LMJ1.2C nanobody, biotin-tagged (VHH)
VHH: QVQLVETGGGLVQAGGSLRLSCAASGSTFSHSAGGWYRQAPEKQRELVAGIRSDGNINYADSVKDRFTISRDNASNTMYLQMNNLKPEDTAVYVCNIRGSYGNTYYSRWGQGTQVTVSS
modifications: biotin at the C-terminus via sortase-mediated tagging (nucleophile GGGK-Biotin)
Molecule B4 came in with a koff in assay [4] of 0.00015 s⁻¹.

B5: LMJ1.2C-IL2 (LMJ1.2C nanobody fused to murine IL-2) (VHH)
VHH: QVQLVETGGGLVQAGGSLRLSCAASGSTFSHSAGGWYRQAPEKQRELVAGIRSDGNINYADSVKDRFTISRDNASNTMYLQMNNLKPEDTAVYVCNIRGSYGNTYYSRWGQGTQVTVSS
B5: the koff in [1] turned out to be 5.06e-06 s⁻¹. Also, in [2], the Kd was 0.0144 nM.

B6: LMJ2.5I nanobody, biotin-tagged (VHH)
VHH: RVQLVETGGGLVQAGGSLRLSCAVSGSTFSHSAGGWYRQAPEKQRELVAGIRSDGNINYADSVKDRFTISRDNASNTMYLQMNNLKPEDTAVYVCNIRGSYGNTYYSRWGQGAQVTVSS
modifications: biotin at the C-terminus via sortase-mediated tagging (nucleophile GGGK-Biotin)
As to B6, the koff in [4] came out at 2.49e-05 s⁻¹.

B7: LMJ2.5I-IL2 (LMJ2.5I nanobody fused to murine IL-2) (VHH)
VHH: RVQLVETGGGLVQAGGSLRLSCAVSGSTFSHSAGGWYRQAPEKQRELVAGIRSDGNINYADSVKDRFTISRDNASNTMYLQMNNLKPEDTAVYVCNIRGSYGNTYYSRWGQGAQVTVSS
Turning to B7, the koff in assay [1] was < 1e-07 s⁻¹. For the same molecule, in assay [2], the Kd was < 0.001 nM.
